In patent publication US20090123940A1 (Johns Hopkins, published 2009):

Experiments:
[1] = molecular target: T1, neuronal pentraxin receptor (NPR), full length, rat (rat, UniProt O35764 1-494); assay: co-IP from co-transfected HEK293T cells
T1 construct: whole, on cells; Stands for NPR expressed in HEK293T cells and for native NPR of rat brain extracts; also called full-length NPR; wtNPR
T1 sequence (looked up): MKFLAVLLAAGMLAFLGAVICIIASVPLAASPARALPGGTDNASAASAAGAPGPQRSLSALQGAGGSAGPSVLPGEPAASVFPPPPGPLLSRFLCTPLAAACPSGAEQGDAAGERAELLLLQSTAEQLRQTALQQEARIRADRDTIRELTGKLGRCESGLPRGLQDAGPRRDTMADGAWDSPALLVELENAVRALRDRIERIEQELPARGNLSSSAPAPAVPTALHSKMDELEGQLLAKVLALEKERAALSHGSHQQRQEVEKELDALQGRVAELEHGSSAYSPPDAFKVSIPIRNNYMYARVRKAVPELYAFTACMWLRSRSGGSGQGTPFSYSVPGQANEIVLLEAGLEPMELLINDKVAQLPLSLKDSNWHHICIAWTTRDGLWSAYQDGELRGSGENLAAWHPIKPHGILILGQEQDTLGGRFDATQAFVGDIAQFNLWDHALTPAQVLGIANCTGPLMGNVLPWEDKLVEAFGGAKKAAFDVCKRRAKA
Source text: (§1) Narp and NP1 form highly organized homo- and hetero-multimer complexes that are covalently linked by N-terminal disulfide bonds (Xu et al., supra). Moreover, NPR and Narp formed heteromultimer complexes when coexpressed in HEK293T cells. Heteromultimer complex formation is dependent on the first and third cysteines of NPs that flank the first coiled-coil domain (Xu et al., supra). NPR was co-expressed with mutants of Narp, in which two or all three of the cysteines are mutated to serine. In mutant “Narp (C1, 2S),” the cysteines at positions 14 and […] were mutated to serines, and in mutant “Narp (C1, 2, 3S)” the cysteines at positions 14, 26, and 79 were mutated to serines. […] Thus, it appeared that NPR and Narp formed heterocomplexes that are stabilized by disulfide bonds. To examine NP complexes in brain, lysates from a control mouse were prepared and immunoprecipitated with rabbit antibody specific to NP1 or Narp. Lysates from knockout mice NP1 KO, Narp KO and combined NP1/Narp/NPR KO (NP TKO) were also utilized as controls. […] The ˜25 kDa band, presumptive NTF-NPR, also specifically co-IPed with both Narp and NP1. […] The pentraxin domain of Narp and NP1 is required for interaction with AMPAR.
(§2) To determine if NPR would interact with AMPAR, AMPAR subunits from GluR1 or GluR6 were HA tagged (GluR1-HA and GluR6-HA, respectively) were co-transfected with myc-tagged Narp (Narp-myc) or NPR(NPR-myc) into HEK293T cells. Lysates were assayed for co-immunoprecipitation. […] Similarly, GluR1-HA but not GluR6-HA co-IPed with NPR-myc.

[2] = molecular target: T2, GluR6-HA (HA tagged GluR6 of Example 10) (UniProt P42260 32-908, limits assumed); assay: co-IP from co-transfected HEK293T cells
T2 construct: whole, on cells; not shown: HA tag
Source text: as §1, §2

[3] = molecular target: T3, native NPR of mouse brain (mouse, UniProt Q99J85 1-493); assay: co-IP from mouse brain lysate with a rabbit antibody to Narp; knockout lysates as controls
T3 sequence (looked up): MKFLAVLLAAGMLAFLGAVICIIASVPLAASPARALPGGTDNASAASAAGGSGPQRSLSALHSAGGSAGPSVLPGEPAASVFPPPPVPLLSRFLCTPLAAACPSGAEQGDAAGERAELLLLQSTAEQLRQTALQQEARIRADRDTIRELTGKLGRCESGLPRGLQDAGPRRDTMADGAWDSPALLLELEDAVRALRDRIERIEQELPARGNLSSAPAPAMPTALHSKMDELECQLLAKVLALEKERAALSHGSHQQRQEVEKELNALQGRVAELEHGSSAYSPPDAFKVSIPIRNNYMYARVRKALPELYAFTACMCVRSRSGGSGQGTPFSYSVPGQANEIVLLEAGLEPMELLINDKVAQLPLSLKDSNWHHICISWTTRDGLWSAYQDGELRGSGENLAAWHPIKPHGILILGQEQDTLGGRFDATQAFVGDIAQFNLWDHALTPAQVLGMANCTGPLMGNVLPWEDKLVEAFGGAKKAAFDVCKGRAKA
Source text: as §1

[4] = molecular target: T3, native NPR of mouse brain; assay: co-IP from mouse brain lysate with a rabbit antibody to NP1; knockout lysates as controls
Source text: as §1

T2 sequence (P42260 32-908 limits assumed): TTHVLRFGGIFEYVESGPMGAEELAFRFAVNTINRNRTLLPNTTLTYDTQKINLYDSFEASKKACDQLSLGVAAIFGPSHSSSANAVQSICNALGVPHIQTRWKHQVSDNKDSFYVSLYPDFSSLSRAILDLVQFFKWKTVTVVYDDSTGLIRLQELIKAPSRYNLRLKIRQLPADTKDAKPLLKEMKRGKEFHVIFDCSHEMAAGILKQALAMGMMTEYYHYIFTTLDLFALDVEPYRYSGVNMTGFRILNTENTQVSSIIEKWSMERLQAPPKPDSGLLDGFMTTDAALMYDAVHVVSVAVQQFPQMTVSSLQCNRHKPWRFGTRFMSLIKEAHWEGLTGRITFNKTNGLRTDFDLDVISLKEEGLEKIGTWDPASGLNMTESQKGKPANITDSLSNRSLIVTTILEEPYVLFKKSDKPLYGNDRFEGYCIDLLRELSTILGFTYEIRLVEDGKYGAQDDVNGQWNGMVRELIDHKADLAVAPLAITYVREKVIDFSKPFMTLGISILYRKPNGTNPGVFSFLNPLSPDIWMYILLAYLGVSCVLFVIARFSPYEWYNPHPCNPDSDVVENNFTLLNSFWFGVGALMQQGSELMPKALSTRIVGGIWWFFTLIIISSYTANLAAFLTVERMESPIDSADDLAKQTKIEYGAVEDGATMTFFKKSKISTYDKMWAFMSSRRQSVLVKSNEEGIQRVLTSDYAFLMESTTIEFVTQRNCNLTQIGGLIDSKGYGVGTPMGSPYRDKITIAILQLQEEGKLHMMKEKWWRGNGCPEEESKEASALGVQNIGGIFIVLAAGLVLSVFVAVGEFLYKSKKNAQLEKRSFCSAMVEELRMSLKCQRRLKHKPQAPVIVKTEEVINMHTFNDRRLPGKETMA

B1: Narp (C1, 3S)-myc, Narp mutant in which cysteines 14 and 79 are mutated to serines (ligand)
chain: QAQDNPIPGSRFVSTALPPEAARAGCPLPAMPMQGGALSPEEELRAAVLHWRETVVQQKETLGAQREAIRELTSKLARSEGLAGGKARGTGATGKDTMGDLPRDPGHVVEQLSRSLQTLKDRLESLELQLHTNASNAGLPSDFREVLQRRLGELERQLLRKVAELEDEKSLLHNETSAHRQKTENTLNALLQRVTELERGNSAFKSPDAFKVSLPLRTNYLYGKIKKTLPELYAFTICLWLRSSASPGIGTPFSYAVPGQANEIVLIEWGNNPIELLINDKVAQLPLFVSDGKWHHICITWTTRDGMWEAFQDGEKLGTGENLAPWHPIKPGGVLILGQEQDTVGGRFDATQAFVGELSQFNIWDRVLRAQEIINIANCSTNMPGNIIPWVDNNVDVFGGASKWPVETCEERLLDL
notes: also called Narp (C1, 2S); mutant Narp; not shown: C-terminal myc tag
B1: no binding [1].

B2: Narp (C1, 2, 3S)-myc, Narp mutant in which cysteines 14, 26, and 79 are mutated to serines (ligand)
chain: QAQDNPIPGSRFVSTALPPEAARAGSPLPAMPMQGGALSPEEELRAAVLHWRETVVQQKETLGAQREAIRELTSKLARSEGLAGGKARGTGATGKDTMGDLPRDPGHVVEQLSRSLQTLKDRLESLELQLHTNASNAGLPSDFREVLQRRLGELERQLLRKVAELEDEKSLLHNETSAHRQKTENTLNALLQRVTELERGNSAFKSPDAFKVSLPLRTNYLYGKIKKTLPELYAFTICLWLRSSASPGIGTPFSYAVPGQANEIVLIEWGNNPIELLINDKVAQLPLFVSDGKWHHICITWTTRDGMWEAFQDGEKLGTGENLAPWHPIKPGGVLILGQEQDTVGGRFDATQAFVGELSQFNIWDRVLRAQEIINIANCSTNMPGNIIPWVDNNVDVFGGASKWPVETCEERLLDL
notes: also called mutant Narp; not shown: C-terminal myc tag
B2: no binding [1].

B3: C-terminal myc-tagged version of Narp (myc-Narp) (ligand)
chain: QAQDNPIPGSRFVCTALPPEAARAGCPLPAMPMQGGALSPEEELRAAVLHWRETVVQQKETLGAQREAIRELTSKLARCEGLAGGKARGTGATGKDTMGDLPRDPGHVVEQLSRSLQTLKDRLESLELQLHTNASNAGLPSDFREVLQRRLGELERQLLRKVAELEDEKSLLHNETSAHRQKTENTLNALLQRVTELERGNSAFKSPDAFKVSLPLRTNYLYGKIKKTLPELYAFTICLWLRSSASPGIGTPFSYAVPGQANEIVLIEWGNNPIELLINDKVAQLPLFVSDGKWHHICITWTTRDGMWEAFQDGEKLGTGENLAPWHPIKPGGVLILGQEQDTVGGRFDATQAFVGELSQFNIWDRVLRAQEIINIANCSTNMPGNIIPWVDNNVDVFGGASKWPVETCEERLLDL
notes: also called myc-tagged Narp; myc-tagged full length Narp; not shown: C-terminal myc tag
B3: no binding [2].

B4: native Narp of mouse brain (ligand, UniProt O70340 15-429, looked up)
chain: AGRAQDSPIPGSRFVCTALPPEAARAGCPLPAMPMQGGALSPEEELRAAVLQLRETVVQQKETLGAQREAIRELTGKLARCEGLAGGKARGTGKDTMGDLPRDPGHVVEQLSRSLQTLKDRLESLELQLRTNVSNAGLPSDFREVLQRRLGELERQLLRKVAELEDEKSLLHNETSAHRQKTESTLNALLQRVTELERGNSAFKSPDAFKVSLPLRTNYLYGKIKKTLPELYAFTICLWLRSSASPGIGTPFSYAVPGQANEIVLIEWGNNPIELLINDKVAQLPLFVSDGKWHHICITWTTRDGMWEAFQDGEKLGTGENLAPWHPIKPGGVLILGQEQDTVGGRFDATQAFVGELSQFNIWDRVLRAQEIINIANCSTNMPGNIIPWVDNNVDVFGGASKWPVETCEERLLDL
B4: binds [3].

B5: native neuronal pentraxin 1 (NP1) of mouse brain (ligand, UniProt Q62443 23-432, looked up)
chain: QDFGPTRFICTSVPVDADMCAASVAAGGAEELRSNVLQLRETVLQQKETILSQKETIRELTTKLGRCESQSTLDSGPGEARSGGGRKQPGSGKNTMGDLSRTPAAETLSQLGQTLQSLKTRLENLEQYSRLNSSSQTNSLKDLLQSKIDDLERQVLSRVNTLEEGKGGPKNDTEERAKIESALTSLHQRISELEKGQKDNRPGDKFQLTFPLRTNYMYAKVKKSLPEMYAFTVCMWLKSSAAPGVGTPFSYAVPGQANELVLIEWGNNPMEILINDKVAKLPFVINDGKWHHICVTWTTRDGVWEAYQDGTQGGNGENLAPYHPIKPQGVLVLGQEQDTLGGGFDATQAFVGELAHFNIWDRKLTPGEVYNLATCSSKALSGNVIAWAESQIEIFGGATKWTFEACRQIN
B5: binds [4].
